Test [1] has as its target GST3C-JIP3^LZ (murine). Nature of the test: ITC; KLC2^TPR as titrant, GST3C-JIP3^LZ in the cell; 25°C; 0.5 M NaCl, 25 mM HEPES, 5 mM MgCl2, 1 mM TCEP, pH 7.5; four experiments globally fitted with a two-stage sequential model (A + B + B → AB + B → ABB); macroscopic association constants. For orientation: Isothermal titration calorimetry measures the heat released or taken up as one component is titrated into another.

Test [2] has as its target JIP3^LZ (leucine zipper domain of murine JIP3 isoform A, residues 417-487) (murine). Kind of test: SEC-MALS; JIP3^LZ on a WTC-030S5 column; 25 mM HEPES pH 7.5, 0.1 M NaCl, 1 mM TCEP; 1 ml/min.

Sequence of KLC2^TPR (murine kinesin light chain 2 TPR domain, residues 191-480) (O88448 190-479): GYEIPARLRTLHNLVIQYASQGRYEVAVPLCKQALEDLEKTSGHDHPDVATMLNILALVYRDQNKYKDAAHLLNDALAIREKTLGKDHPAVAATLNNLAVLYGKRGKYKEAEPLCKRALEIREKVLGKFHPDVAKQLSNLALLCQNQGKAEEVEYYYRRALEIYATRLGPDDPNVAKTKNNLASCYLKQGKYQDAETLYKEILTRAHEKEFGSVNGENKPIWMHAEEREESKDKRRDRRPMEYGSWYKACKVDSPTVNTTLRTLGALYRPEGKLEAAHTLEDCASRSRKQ

In the case of “KLC2^TPR (murine kinesin light chain 2 TPR domain, residues 191-480) (from UniProt O88448 190-479) (domain or fragment)”, in test [1], the K (macroscopic association constant), stage A + B + B → BA + B was found to be 0.132 µM⁻¹; the K (macroscopic association constant), stage BA + B → BAB stood at 0.132 µM⁻¹; the dH, stage A + B + B → BA + B is -18.8 kcal/mol; the dH, stage BA + B → BAB was determined as 0.952 kcal/mol.
What is called stoichiometry N is a count of units in the complex or per binding partner. Turning to “JIP3^LZ (leucine zipper domain of murine JIP3 isoform A, residues 417-487) (domain or fragment)”, in test [2], the stoichiometry N was 2.

Source of the values: paper PMC6224480, “Insights into Kinesin-1 Activation from the Crystal Structure of KLC2 Bound to JIP3” (Structure(London, England:1993), 2018).
